Article PMC12243203

Molecular target: recombinant His-EtSERPIN1 protein (Eimeria tenella)

Question: Which adhesion rate to DF-1 cells of yeast cells displaying EtSERPIN1 that were pre-incubated with recombinant GgANXA2 protein (PBS group: 26.75%) does the source give for “recombinant His-tag GgANXA2 protein (from UniProt P17785 1-339) (natural protein)” here?
Answer: The adhesion rate to DF-1 cells of yeast cells displaying EtSERPIN1 that were pre-incubated with recombinant GgANXA2 protein (PBS group: 26.75%) was 44.3%.
